Consider one molecule from patent publication US20230407401A1 (NATIONAL INSTITUTE OF IMMUNOLOGY, published 2023).

For the experiment, the target named is T1, S35 methionine radiolabelled BLM (in vitro translated) (UniProt P54132 1-1417, limits assumed, S35 methionine radiolabel).
T1 construct: also called in vitro translated BLM; radioactive BLM
The experiment can be described thus: in vitro interaction of S35 methionine radiolabelled BLM with bound GST SMAD3, autoradiography. The protocol:
H. BLM directly interacted with SMAD3 and HDAC1. (Top) In vitro interactions were carried out with S35 methionine radiolabelled BLM and bound (left) GST and GST SMAD3, (right) GST and GST HDAC1. Post-interaction the bound radioactive BLM was detected by autoradiography. (Bottom) Inputs used for in vitro translated BLM (detected by autoradiography) and GST, GST SMAD3, GST HDAC1 (detected by Coomassie). The

T1 sequence (P54132 whole entry): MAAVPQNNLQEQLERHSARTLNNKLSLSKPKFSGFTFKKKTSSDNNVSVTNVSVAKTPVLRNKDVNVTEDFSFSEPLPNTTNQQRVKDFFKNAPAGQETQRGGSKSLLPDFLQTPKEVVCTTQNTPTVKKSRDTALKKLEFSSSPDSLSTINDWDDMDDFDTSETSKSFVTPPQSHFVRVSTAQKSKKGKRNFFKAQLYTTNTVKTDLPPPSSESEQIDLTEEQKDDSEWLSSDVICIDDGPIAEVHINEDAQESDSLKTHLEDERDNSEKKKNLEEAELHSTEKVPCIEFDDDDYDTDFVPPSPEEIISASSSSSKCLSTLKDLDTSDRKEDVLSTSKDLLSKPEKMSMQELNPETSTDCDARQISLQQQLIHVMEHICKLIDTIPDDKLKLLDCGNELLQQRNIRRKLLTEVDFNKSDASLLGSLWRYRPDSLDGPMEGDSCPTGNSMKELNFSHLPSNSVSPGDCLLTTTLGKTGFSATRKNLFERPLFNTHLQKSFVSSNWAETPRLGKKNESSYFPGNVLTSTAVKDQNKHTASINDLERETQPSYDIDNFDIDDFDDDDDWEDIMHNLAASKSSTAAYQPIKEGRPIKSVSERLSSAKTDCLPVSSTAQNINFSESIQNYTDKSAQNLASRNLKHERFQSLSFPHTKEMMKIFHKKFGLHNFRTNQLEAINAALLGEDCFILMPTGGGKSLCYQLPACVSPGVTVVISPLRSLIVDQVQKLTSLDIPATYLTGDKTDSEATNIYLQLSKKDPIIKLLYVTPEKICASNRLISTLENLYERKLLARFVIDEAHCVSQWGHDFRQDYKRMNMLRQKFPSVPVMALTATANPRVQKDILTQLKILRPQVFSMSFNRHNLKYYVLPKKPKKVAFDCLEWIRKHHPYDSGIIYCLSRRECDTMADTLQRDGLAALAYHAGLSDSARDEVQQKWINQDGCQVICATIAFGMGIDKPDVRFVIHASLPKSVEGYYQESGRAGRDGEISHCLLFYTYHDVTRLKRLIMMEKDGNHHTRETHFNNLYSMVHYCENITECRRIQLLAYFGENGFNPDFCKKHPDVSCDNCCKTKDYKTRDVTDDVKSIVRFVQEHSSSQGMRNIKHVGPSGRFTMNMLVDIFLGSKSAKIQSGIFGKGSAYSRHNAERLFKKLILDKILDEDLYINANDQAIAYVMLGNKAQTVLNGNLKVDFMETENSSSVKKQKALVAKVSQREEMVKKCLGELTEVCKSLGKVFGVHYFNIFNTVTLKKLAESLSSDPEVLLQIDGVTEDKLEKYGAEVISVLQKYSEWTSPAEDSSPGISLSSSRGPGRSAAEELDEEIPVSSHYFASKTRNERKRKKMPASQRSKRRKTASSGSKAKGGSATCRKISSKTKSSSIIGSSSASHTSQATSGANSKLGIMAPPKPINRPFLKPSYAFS

B1: GST SMAD3 (WT) (other, UniProt P84022 1-425, looked up)
chain: MSSILPFTPPIVKRLLGWKKGEQNGQEEKWCEKAVKSLVKKLKKTGQLDELEKAITTQNVNTKCITIPRSLDGRLQVSHRKGLPHVIYCRLWRWPDLHSHHELRAMELCEFAFNMKKDEVCVNPYHYQRVETPVLPPVLVPRHTEIPAEFPPLDDYSHSIPENTNFPAGIEPQSNIPETPPPGYLSEDGETSDHQMNHSMDAGSPNLSPNPMSPAHNNLDLQPVTYCEPAFWCSISYYELNQRVGETFHASQPSMTVDGFTDPSNSERFCLGLLSNVNRNAAVELTRRHIGRGVRLYYIGGEVFAECLSDSAIFVQSPNCNQRYGWHPATVCKIPPGCNLKIFNNQEFAALLAQSVNQGFEAVYQLTRMCTIRMSFVKGWGAEYRRQTVTSTPCWIELHLNGPLQWLDKVLTQMGSPSIRCSSVS
notes: also called pGEX6-SMAD3 WT; not shown: Glutathione S-transferase tag of the pGEX6 vector
On to B1, for which the binding result is listed as “binds”.
